Experimental data as given in publication PMC2724282 (Nucleic Acids Research, 2009).

Molecular target: the molecule itself
Experiment: cross-linking

B1: Hin–H107Y/S94C (enzyme)
chain: MATIGYIRVSTIDQNIDLQRNALTSANCDRIFEDRISGKIANRPGLKRALKYVNKGDTLVVWKLDRLGRSVKNLVALISELHERGAHFHSLTDCIDTSSAMGRFFFYVMSALAEMERELIVERTLAGLAAARAQGRLGGRPRAINKHEQEQISRLLEKGHPRQQLAIIFGIGVSTLYRYFPASRIKKRMN
Question: Does B1 bind?
Answer: Result: binds
